# From publication PMC2939071, “The Crystal Structure of Toxoplasma gondii Pyruvate Kinase 1” (PLoS ONE, 2010)
# T1: TgPK1 (T. gondii pyruvate kinase 1), full length (Toxoplasma gondii, UniProt Q969A2)
# T1 construct: gene pk; full length Met1-Glu531, N-terminal His6 tag and TEV site, tag kept; synthetic gene, expressed in E. coli; homotetramer
# T1 sequence (Q969A2 1-531): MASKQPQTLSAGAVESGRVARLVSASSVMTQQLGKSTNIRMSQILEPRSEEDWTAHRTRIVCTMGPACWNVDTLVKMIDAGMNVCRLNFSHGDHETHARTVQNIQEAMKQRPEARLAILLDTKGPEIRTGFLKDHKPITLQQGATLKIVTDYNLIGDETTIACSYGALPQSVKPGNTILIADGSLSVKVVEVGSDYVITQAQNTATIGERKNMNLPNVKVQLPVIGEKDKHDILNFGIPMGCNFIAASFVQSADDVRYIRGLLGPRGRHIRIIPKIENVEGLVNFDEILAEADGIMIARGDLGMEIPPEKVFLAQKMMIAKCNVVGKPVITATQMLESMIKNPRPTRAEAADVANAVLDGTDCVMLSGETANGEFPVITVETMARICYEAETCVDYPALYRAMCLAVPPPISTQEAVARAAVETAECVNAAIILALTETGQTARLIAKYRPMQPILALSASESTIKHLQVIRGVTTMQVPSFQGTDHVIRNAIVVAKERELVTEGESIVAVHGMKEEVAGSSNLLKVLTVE
# Key:
# [1] = target: T1, TgPK1 (T. gondii pyruvate kinase 1), full length; assay: lactate dehydrogenase-coupled NADH assay, Hill fit; format: biochemical; details: allosteric activator; 1 mM effector, PEP varied 0.01 to 10 mM, 2 mM ADP, 50 mM KCl, 20 mM MgCl2, pH 7.5
# [2] = target: Toxoplasma gondii pyruvate kinase 1, N-terminally truncated (Ile39 to Glu531) (Toxoplasma gondii); assay: crystal structure; truncated TgPK1 crystallised with K+ and Mg2+; 15% PEG3350, 100 mM succinic acid pH 7.0; the asymmetric unit is a tetramer
# [3] = target: Toxoplasma gondii pyruvate kinase 1, N-terminally truncated (Ile39 to Glu531) (Toxoplasma gondii); assay: SEC; Superdex 200 26/60 in 10 mM HEPES pH 7.5, 500 mM NaCl; oligomeric state from the elution volume (164 mL full length, 168 mL truncated); profile not shown
# [4] = target: Toxoplasma gondii pyruvate kinase 1, full length (Met1 to Glu531) (Toxoplasma gondii) (UniProt Q27006); assay: crystal structure; full TgPK1 crystallised without substrates, effectors or added ions; 19% PEG3350, 100 mM BisTris pH 6.0, 200 mM NH4I; the asymmetric unit is a tetramer
# [5] = target: Toxoplasma gondii pyruvate kinase 1, full length (Met1 to Glu531) (Toxoplasma gondii) (UniProt Q27006); assay: SEC; Superdex 200 26/60 in 10 mM HEPES pH 7.5, 500 mM NaCl; oligomeric state from the elution volume (164 mL full length, 168 mL truncated); profile not shown
# [6] = substrate: C=C(OP(=O)(O)O)C(=O)O; assay: lactate dehydrogenase-coupled NADH assay, Hill fit; format: biochemical, Toxoplasma gondii; details: no sugar effector, cooperative (Hill), 2 mM ADP, 50 mM KCl, 20 mM MgCl2, 50 mM HEPES pH 7.5, room temperature
# Text: lactate dehydrogenase-coupled NADH assay, Hill fit on TgPK1 (T. gondii pyruvate kinase 1), full length
molecule,measurement,setting,value
"O=P(O)(O)OC[C@H]1OC(O)[C@H](O)[C@@H](O)[C@@H]1O (stereo partly shown) [G6P, glucose-6-phosphate]","lactate dehydrogenase-coupled NADH assay, Hill fit",[1],G6P showed a classic allosteric activation with a six-fold reduction in the apparent Km
"Toxoplasma gondii pyruvate kinase 1, N-terminally truncated (Ile39 to Glu531) (domain or fragment)",stoichiometry N,[2],4
same,stoichiometry N,[3],4
"Toxoplasma gondii pyruvate kinase 1, full length (Met1 to Glu531) (from UniProt Q27006 1-509) (enzyme)",stoichiometry N,[4],4
same,stoichiometry N,[5],4
"TgPK1 (T. gondii pyruvate kinase 1), full length (Toxoplasma gondii) (protein, full length Met1-Glu531, N-terminal His6 tag and TEV site, tag kept; synthetic gene, expressed in E. coli; homotetramer) MASKQPQTLSAGAVESGRVARLVSASSVMTQQLGKSTNIRMSQILEPRSEEDWTAHRTRIVCTMGPACWNVDTLVKMIDAGMNVCRLNFSHGDHETHARTVQNIQEAMKQRPEARLAILLDTKGPEIRTGFLKDHKPITLQQGATLKIVTDYNLIGDETTIACSYGALPQSVKPGNTILIADGSLSVKVVEVGSDYVITQAQNTATIGERKNMNLPNVKVQLPVIGEKDKHDILNFGIPMGCNFIAASFVQSADDVRYIRGLLGPRGRHIRIIPKIENVEGLVNFDEILAEADGIMIARGDLGMEIPPEKVFLAQKMMIAKCNVVGKPVITATQMLESMIKNPRPTRAEAADVANAVLDGTDCVMLSGETANGEFPVITVETMARICYEAETCVDYPALYRAMCLAVPPPISTQEAVARAAVETAECVNAAIILALTETGQTARLIAKYRPMQPILALSASESTIKHLQVIRGVTTMQVPSFQGTDHVIRNAIVVAKERELVTEGESIVAVHGMKEEVAGSSNLLKVLTVE",Km,[6],750 ± 51 µM
same,Vmax,[6],42 µM/min
